Experimental data as given in patent US12545900B2, “CGAS/DNCV-like nucleotidyltransferases and uses thereof” (Dana-Farber Cancer Institute, Inc., priority 2018, dated 2026).
Entries after “also recorded” stand apart in the source; their conditions may differ.

Tests used:
RECON = target: T1, RECON (Mus musculus, UniProt Q8VC28); experiment: Gel shift assay, radiolabeled nucleotide binding to RECON (native PAGE); conditions: radiolabeled nucleotide, 0, 4, 20, 100 μM protein
T1 construct: 6xHis-SUMO2 (N, cleaved yes); made in house; host or cells: E. coli BL21 CodonPlus (DE3)-RIL
T1 sequence (Q8VC28 1-323): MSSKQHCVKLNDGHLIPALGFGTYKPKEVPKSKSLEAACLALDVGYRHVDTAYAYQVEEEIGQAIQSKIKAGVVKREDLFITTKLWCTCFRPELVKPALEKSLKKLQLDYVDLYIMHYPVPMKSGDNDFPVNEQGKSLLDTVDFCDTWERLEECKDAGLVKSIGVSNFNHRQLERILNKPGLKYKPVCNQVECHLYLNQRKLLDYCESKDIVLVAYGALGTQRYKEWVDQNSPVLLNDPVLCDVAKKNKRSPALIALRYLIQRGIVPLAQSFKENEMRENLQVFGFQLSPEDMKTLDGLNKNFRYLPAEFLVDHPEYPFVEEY
Description: (§1) Briefly, recombinant Mus musculus STING or RECON, at 4, 20, or 100 μM was incubated with radiolabeled nucleotide (≤1 μM final concentration) in gel shift buffer for final conditions of 50 mM Tris pH 7.5, 60 mM KCl, 5 mM Mg (OAc) 2, and 1 mM DTT. Experiments were prepared by combining 1 μL of [α-^32P] labeled nucleotide, 2 uL 5x gel shift buffer, 5 μL of nuclease free water, and started by addition of 2 μL of recombinant protein in storage buffer.
(§2) After 30 min of equilibration, bound and free nucleotide were separated by 6% native PAGE in 0.5x TBE buffer. Gels were dried, and exposed to phosphorscreen prior to detection by Typhoon Trio Variable Mode Imager system (GE Healthcare). Gel shifts were quantified with ImageQuant® 5.2 and the % bound nucleotide was calculated as a proportion of total bound and free nucleotide for each lane, after subtraction of background signal. Gel shift data is representative of ≥2 independent experiments.

CapE = target: T2, CapE (Escherichia coli, UniProt Q6XGD4); experiment: Phospholipase assay (EnzChek Phospholipase A1), CapE; type: biochemical, E. coli; conditions: 0.1, 1, and 10-fold molar ratios of nucleotide to phospholipase
T2 construct: made in house; host or cells: E. coli BL21 CodonPlus (DE3)-RIL
T2 sequence (Q6XGD4 whole entry): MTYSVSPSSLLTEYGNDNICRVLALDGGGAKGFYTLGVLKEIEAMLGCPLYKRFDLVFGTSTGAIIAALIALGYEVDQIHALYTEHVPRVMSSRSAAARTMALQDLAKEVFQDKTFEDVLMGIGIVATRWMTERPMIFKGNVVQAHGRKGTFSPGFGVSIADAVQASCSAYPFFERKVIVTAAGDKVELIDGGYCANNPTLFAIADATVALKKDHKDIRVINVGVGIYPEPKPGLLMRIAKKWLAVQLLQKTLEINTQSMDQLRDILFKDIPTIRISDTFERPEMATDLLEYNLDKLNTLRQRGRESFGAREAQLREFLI
Description: Patatin-like lipases were assayed as previously described (Gaspar & Machner (2014) Proc. Natl. Acad. Sci. U.S.A. 111:4560-4565). Briefly, CapV and CapE were produced recombinantly and catalytic activity was measured using the EnzChek® Phospholipase A1 Assay Kit (Invitrogen) according to the manufacturer's instructions. […] Assays were monitored fluorometrically Ex=460 nm/Em=515 nm, for 60 min at ˜90 s intervals at room temperature using a Biotek Synergy plate reader. Slope of each reaction in the linear range was used to calculate activity (Linear regression/straight line analysis, Prism 7.0c). A PLA1 standard curve from 20-0.02 U was used to interpolate phospholipase activity. Emission was monitored at a gain of 100 and/or 50 in order to extend the linear range of the assay.

Mus musculus STING = target: T3, Mus musculus STING (Mus musculus, UniProt Q3TBT3); experiment: Gel shift assay, radiolabeled nucleotide binding to STING (native PAGE); conditions: radiolabeled nucleotide, 0, 4, 20, 100 μM protein
T3 construct: 6xHis-SUMO2 (N, cleaved yes); made in house; host or cells: E. coli BL21 CodonPlus (DE3)-RIL
T3 sequence (Q3TBT3 138-378 limits assumed): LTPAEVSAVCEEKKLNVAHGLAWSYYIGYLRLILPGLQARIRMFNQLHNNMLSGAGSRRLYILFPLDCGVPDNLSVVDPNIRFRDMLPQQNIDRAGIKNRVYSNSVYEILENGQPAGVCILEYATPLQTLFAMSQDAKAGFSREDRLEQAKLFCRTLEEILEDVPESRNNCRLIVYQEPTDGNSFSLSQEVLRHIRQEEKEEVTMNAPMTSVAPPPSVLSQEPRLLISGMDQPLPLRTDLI
Description: as §1, §2

[1] = Second messenger synthesis assay ([α-32P] NTPs, TLC, MS/NMR of products); type: biochemical; conditions: for nucleotide product synthesized by the enzyme: purified enzyme with [α-32P] NTPs, TLC, products confirmed by MS/NMR
Description: Recombinant, candidate nucleotidyltransferase reactions combined 4 μL of 5× reaction buffer (250 mM CAPSO pH 9.4, […], 25 mM Mg (OAc) 2, 5 mM DTT), 2 μL of 10× NTPs, 1 uL [α-^32P] NTPs (˜1 uCi), 1 μL of candidate enzyme in storage buffer (˜20 μM), and a remaining volume of nuclease free water. The final reactions (50 mM CAPSO pH 9.4, 50 mM KCl, 5 mM Mg (OAc) 2, 1 mM DTT, ≤5% glycerol, 25-250 μM individual NTPs, trace amounts of [(-^32P] NTP, 1 μM enzyme) were started with addition of enzyme. Where indicated, pH was altered by replacing CAPSO buffer with appropriate buffer from “StockOptions pH Buffer Kit” (Hampton Research). When appropriate, Mg^2+ was replaced with an equimolar concentration of Mn^2+(MnCl2). cGAS reactions were always carried out with Tris at pH 7.5 and supplemented with 1 μM ISD45 dsDNA (Stetson & Medzhitov. (2006) Immunity 24:93-103). Reactions were carried out with 25 μM of each indicated NTP for FIGS. 1B, 3D, 8B, 8C, and 8D and for FIGS. 2C, 2G-2I, 5B, 5C, 10A-10D, 11A, 11B, and 13D. Reactions in all other figures were carried out with 250 μM NTP. The NTP/[α-^32P] NTPs in FIG. 1B are cGAS (ATP, GTP/[α-^32P] GTP), DncV (ATP, GTP/[α-^32P] ATP), DisA (ATP/[α-^32P] ATP), WspR (GTP/[xx-^32P] GTP), and CdnE (NTP/[{-^32P] NTP). P1 nuclease treated reactions in FIG. 1C and FIG. 11B are cGAS (ATP, GTP/[α-^32P] ATP), DncV (ATP, GTP/[α-^32P] GTP), CdnE (ATP, UTP/[<- ^32P] ATP), and Lp-CdnE02 (CTP, UTP/ [α-^32P] UTP) . Where indicated, nonhydrolyzable nucleotides [Ap (c) pp, Gp (c) pp, Cp (c) pp, or Up (n) pp (Jena)] were used at 25 μM.
Reactions were incubated for 2 h at 37° C. prior to analysis unless otherwise stated. Reactions were stopped by addition of 5 U of alkaline phosphatase (New England Biolabs) which removed triphosphates on remaining NTPs and converted the remaining nucleotide [α-^32P] to ^32Pi and allowed visualization of cyclic nucleotides. After a >20 min incubation, […] (PEI-cellulose) or 1 uL (silica) of the reaction was spotted 1.5 cm from the bottom of the TLC plate, spaced 0.8 cm apart. 20 cm×20 cm F-coated PEI-cellulose TLCs (Millipore) were developed in 1.5 M KH2PO4 (pH 3.8) until the buffer front reacted ˜1 cm from the top; 20 cm×10 cm F-coated silica HP-TLC plates (Millipore) were developed in 11:7:2 1-propanol: NH4OH: H2O in a chemical fume hood for 1 hour. Plates were dried and exposed to phosphorscreen prior to detection by Typhoon™ Trio Variable Mode Imager system (GE Healthcare). All TLC data are representative of ≥3 independent experiments, with the exception of the biochemical screen which represents ≥2 independent experiments.
Cyclic nucleotides were produced in large scale using previously described methods (Sureka et al. (2014) Cell 158:1389-1401) with the following changes. Small-scale second messenger synthesis assays were scaled up to […] reactions with final conditions of 50 mM CAPSO pH 9.4, 12.5-50 mM KCl, 5-20 mM Mg (OAc) 2, 1 mM DTT, ≤5% glycerol, 250 μM individual NTPs, and 1 μM enzyme. A 20 μL aliquot of the larger reaction was removed and [cx-^32P] NTP were added to follow reaction progress. Reactions were incubated for 24 hours at which time 5 U of CIP/mL of reaction was added and the reaction was further incubated for 2-24 hours. Reactions were heat inactivated at 65° C. for 30 min, diluted to a final salt concentration of 12.5 mM, and purified by anion exchange chromatography and FPLC (either 1 mL Q-Sepharose® column, or Mono Q 4.6/100 PE, GE Healthcare). The column was washed with water and 1 mL fractions were collected during a gradient elution with 2M ammonium acetate. Fractions harboring the appropriate product were identified by A260 and silica TLC, visualizing the nucleotide products by UV-shadowing, imaging using a handheld camera, and comparing migration to paired, radiolabeled reactions. Selected fractions were concentrated by evaporation and re-suspended in 30 μL of nuclease free water for MS. […]

With `Nc1ncnc2c1ncn2[C@@H]1O[C@@H]2COP(=O)(O)O[C@H]3[C@@H](O)[C@H](n4cnc5c(N)ncnc54)O[C@@H]3COP(=O)(O)O[C@H]2[C@H]1O` [c-di-AMP, cyclic di-AMP, reference compound] the “recognition/binding of nucleotide by RECON” value (RECON) was “detected by both STING and RECON”.

For `Nc1nc2c(ncn2[C@@H]2O[C@@H]3COP(=O)(O)O[C@H]4[C@@H](O)[C@H](n5cnc6c(N)ncnc65)O[C@@H]4COP(=O)(O)O[C@H]3[C@H]2O)c(=O)[nH]1` [3′3′ cGAMP, 3′-5′/3′-5′ cGAMP, reference compound], the “recognition/binding of nucleotide by RECON” value (RECON) was “detected by both STING and RECON” and the “activation of CapE phospholipase activity” value (CapE) was “exquisite specificity of CapE insulates this circuit from 3′3′ cGAMP”.

With `Nc1nc2c(ncn2[C@@H]2O[C@@H]3COP(=O)(O)O[C@H]4[C@@H](O)[C@H](n5cnc6c(=O)[nH]c(N)nc65)O[C@@H]4COP(=O)(O)O[C@H]3[C@H]2O)c(=O)[nH]1` [c-di-GMP, cyclic di-GMP, reference compound] the “recognition/binding of nucleotide by STING” value (Mus musculus STING) was “detected by STING”.

B1: Rm-CdnE: CdnE homolog from Rhodothermus marinus, SEQ ID NO: 198 (protein, listed as Rhodothermus marinus)
chain: MPVPESQLERWSHQGATTTAKKTHESIRAALDRYKWPKGKPEVYLQGSYKNSTNIRGDSDVDVVVQLNSVFMNNLTAEQKRRFGFVKSDYTWNDFYSDVERALTDYYGASKVRRGRKTLKVETTYLPADVVVCIQYRKYPPNRKSEDDYIEGMTFYVPSEDRWVVNYPKLHYENGAAKNQQTNEWYKPTIRMFKNARTYLIEQGAPQDLAPSYFLECLLYNVPDSKFGGTFKDTFCSVINWLKRADLSKFRCQNGQDDLFGEFPEQWSEEKARRFLRYMDDLWTGWGQ
In the case of B1, the “nucleotide product synthesized by the enzyme” value (“nucleotide product synthesized” for short) [1] is reported as “synthesized cUMP-AMP”.

B2: Ec-CdnD02: CD-NTase from Enterobacter cloacae, SEQ ID NO: 112 (protein, listed as Enterobacter cloacae)
chain: MELQPQFNEFLANIRPTDTQKEDWKSGARTLRERLKNFEPLKEIVVSTFLQGSIRRSTAIRPLGDKRPDVDIVVVTNLDHTRMSPTDAMDLFIPFLEKYYPGKWETQGRSFGITLSYVELDLVITAIPESGAEKSHLEQLYKSESVLTVNSLEEQTDWRLNKSWTPNTGWLSESNSAQVEDAPASEWKAHPLVLPDREKNEWGRTHPLAQIRWTAEKNRLCNGHYINLVRAVKWWRQQNSEDLPKYPKGYPLEHLIGNALDNGTTSMAQGLVQLMDTFLSRWAAIYNQKSKPWLSDHGVAEHDVMARLTAEDFCSFYEGIASAAEIARNALASEEPQESAQLWRQLFGSKFPLPGPQGGDRNGGFTTPSKPAEPQKTGRFA
In the case of B2, the “nucleotide product synthesized” value [1] is reported as “cyclic AMP-AMP-GMP (cAAG), a cyclic trinucleotide, is the major product”.

B3: Em-CdnE: CdnE from Elizabethkingia meningoseptica, SEQ ID NO: 201 (protein, listed as Elizabethkingia meningoseptica)
chain: MNFSEQQLINWSRPVSTTEDLKCQNAITQITAALRAKFGNRVTIFLQGSYRNNTNVRQNSDVDIVMRYDDAFYPDLQRLSESDKAIYNAQRTYSGYNFDELKADTEEALRNVFTTSVERKNKCIQVNGNSNRITADVIPCFVLKRFSTLQSVEAEGIKFYSDDNKEIISFPEQHYSNGTEKTNQTYRLYKRMVRILKVVNYRLIDDGEIADNLVSSFFIECLVYNVPNNQFISGNYTQTLRNVIVKIYEDMKNNADYTEVNRLFWLFSNRSPRTRQDALGFMQKCWNYLGYQ
In the case of B3, the “nucleotide product synthesized” value [1] is reported as “robustly synthesized cyclic dipurines; also recorded: synthesis of c-di-AMP, cGAMP, and c-di-GMP”.

B4: CdnE: E. coli cGAS/DncV-like nucleotidyltransferase, SEQ ID NO: 166 (protein, listed as Escherichia coli)
chain: MGIPESQLDTWSHQGSIAQSASTYSIIKNALESANTKYHGKNFKVFLQGSYGNDTNIYAESDVDVVICLDDVYYSDLTQLSPEDKDAYDRAFVPATYSYTQFKQDVLEALTERFGSDVKVGDKAIVVAANGSRRKADVIASMQFRRYWKFKGHYDSQYDEGICFFNGAGERIANYPKQHSENLTLKHQASNKWLKPMVRVLKNLRSKLIADGKLKSGLAPSYYLEGLLYNVPNEKFGTSYADCFVNAMNWIQTEADKDKLVCANEQYYLLWEGTHTSWEKADAEAFIDAAIKMWNEW
With B4 the “requirement of a cognate stimulus for enzyme activity” value [1] was “constitutively active and does not require a cognate stimulus”, the “nucleotide product synthesized” value [1] was “cyclic UMP-AMP (cUMP-AMP)” and the “nucleotide product synthesized” value ([1]; listed as wild-type CdnE) was “robustly synthesized cUMP-AMP”.
